For assay [1], the target named is T1, human GPC3-his tag protein (human, UniProt P51654 25-559, limits assumed).
T1 construct: recombinant soluble antigen used as analyte in all Biacore runs; also called recombinant GPC3 protein; rhGPC3-His; not shown: His tag
As to the kind of experiment: SPR Biacore 8K, mAb captured, affinity ranking. On the procedure: To evaluate antigen binding activity, the chimeric antibody's affinity was measured by Biacore 8K. A serial dilution of human GPC3-his tag protein was injected over captured chimeric antibody 52H5D3B8-6 #-VH+VL for 3 mins at a flow rate of 30 μl/min. The antigen was allowed to dissociate for 720 s. Among the multi detection doses, two concentrations with most close affinity to the chimeric antibody's affinity were chosen for the 16 humanized antibodies' affinity detection.

Assay [2] deals with T2, human GPC3 on cells (human, UniProt P51654 25-554).
T2 construct: whole, on cells; over-expressed on CHOK1 cells or endogenous on HEPG2, Hep3B and Huh-7 hepatocellular carcinoma cells; the cell line is named under assay; also called GPC3-CHOK1 cells; human GPC3 over-expressed CHOK1 cells
As to the kind of experiment: FACS, Hep3B cells. On the procedure:
(§1) To evaluate the antigen binding property, the humanized antibodies were analyzed for their binding to human GPC3 over-expressed CHOK1 cells, HEPG2 cells, Hep3B cells and Huh-7 cells by FACS. Briefly, GPC3-CHOK1 cells, HEPG2 cells, Hep3B cells and Huh-7 cells were firstly incubated with Fc blocking reagent at 4° C. for 15 mins. Cells were washed by FACS buffer and divided to each well with 4-fold serially diluted humanized antibodies starting at 10 μg/mL at 4° C. for 60 mins. Cells were washed by FACS buffer and fixed with 2% PFA at RT for 15 mins. […] The 16 humanized antibodies were separated into two plates.

In assay [3] the target is T2, human GPC3 on cells. As to the kind of experiment: FACS, GPC3-CHOK1 cells. On the procedure:
as §1

For assay [4], the target named is T2, human GPC3 on cells. The assay can be described thus: FACS, Huh-7 cells. The protocol:
as §1

Assay [5] deals with T2, human GPC3 on cells. The assay can be described thus: FACS, HEPG2 cells. The protocol:
as §1

In assay [6] the target is T1, human GPC3-his tag protein. As to the kind of experiment: SPR Biacore, mAb captured on CM5, GPC3-his dilution series (full kinetics). The protocol:
The binding of the humanized antibodies to recombinant GPC3 protein (human GPC3-his tag) was tested by Biacore using a capture method. 52H5D3B8-6 #-V+VL, 52H5D3B8-6 #-VH1+VL1, 52H5D3B8-6 #-VH1+VL3, 52H5D3B8-6 #-V1+VL4, 52H5D3B8-6 #-VH2+VL4, 52H5D3B8-6 #-VH3+VL1, 52H5D3B8-6 #-VH3+VL3 mAbs were captured using CM5 sensor chip. A serial dilution of human GPC3-his tag protein was injected over captured antibody for 2 mins at a flow rate of […]. The antigen was allowed to dissociate for 360 s. All the experiments were carried out on a Biacore T200.

Assay [7] has as its target T2, human GPC3 on cells. As to the kind of experiment: FACS, GPC3-CHOK1 cells. The protocol:
Briefly, GPC3-CHOK1 cells were firstly incubated with Fc blocking reagent at 4° C. for 15 mins. Cells were washed by FACS buffer and divided to each well with 3-fold serially diluted 52H5D3B8, 52H5D3B8-1 #, 52H5D3B8-2 #, 52H5D3B8-3 #, 52H5D3B8-4 #, 52H5D3B8-5 #, 52H5D3B8-6 #, 52H5D3B8-7 #, 52H5D3B8-8 #, 52H5D3B8-9 #, 52H5D3B8-10 #, 52H5D3B8-11 #, 52H5D3B8-12 #, 52H5D3B8-13 #, 52H5D3B8-14 # and 52H5D3B8-15# chimeric mAbs starting at 30 μg/mL at 4° C. for 60 mins. Cells were washed by FACS buffer and fixed with 2% PFA at RT for 15 mins. […] Samples were washed twice with FACS buffer.
This is another data set of the same source.

Assay [8] has as its target T1, human GPC3-his tag protein. The assay can be described thus: SPR Biacore 8K, mAb captured, one or two doses GPC3-his. The protocol:
The binding of the optimized antibodies of 52H5D3B8 mAb to human GPC3-his was tested with Biacore using a capture method. A single dose or two doses of human GPC3-his tag protein was injected over captured antibody. All the experiments were carried out on a Biacore 8K. Data analysis was carried out using Biacore 8K evaluation software.

B1: 52H5D3B8-6#-VH2+VL1 (antibody, V domains shown)
VH: QVQLVQSGAEVKKPGASVKVSCKASGYTFTDYEMHWVRQAPGQGLEWIGAIHPGSGGTAYNQKFKGRVTMTADTSTSTVYMELSSLRSEDTAVYYCTRYYSYAYWGQGTLVTVSS
VL: DIVMTQTPLSLSVTPGQPASISCRSSQSLVHSNGNTYLQWYLQKPGQSPQLLIYKVSNRFSGVPDRFSGSGSGTDFTLKISRVEAEDVGVYYCFQSIHVPYTFGGGTKLEIK
notes: humanized
The molecule B1 returned a Kd in assay [1] of 1.15 nM. Further, the koff in assay [1] turned out to be 0.000742 s⁻¹. Besides, the kon in assay [1] was 646000 M⁻¹ s⁻¹. Moreover, the concentration giving a half-maximal response (EC50) in assay [2] was found to be 0.0824 µg/mL; in assay [3] it was 0.0384 µg/mL; in assay [4], 0.0427 µg/mL; in assay [5] it was 0.0479 µg/mL.

B2: 52H5D3B8-6#-VH1+VL3 (antibody, V domains shown)
VH: QVQLVQSGAEVKKPGASVKVSCKASGYTFTDYEMHWVRQAPGQGLEWMGAIHPGSGGTAYNQKFKGRVTMTRDTSTSTVYMELSSLRSEDTAVYYCARYYSYAYWGQGTLVTVSS
VL: DIVMTQTPLSLSVTPGQPASISCRSSQSLVHSNGNTYLQWYLQKPGQSPKLLIYKVSNRFSGVPDRFSGSGSGTDFTLKISRVEAEDVGVYYCFQSIHVPYTFGGGTKLEIK
notes: humanized
B2: the figures for the Kd in assay [6] and in assay [1] were 1.76 nM and 1.74 nM, respectively. In addition, the koff in assay [6] came to 0.000872 s⁻¹; in assay [1], 0.000975 s⁻¹. The figures for the kon in assay [6] and in assay [1] were 494000 M⁻¹ s⁻¹ and 561000 M⁻¹ s⁻¹, respectively. In addition, the EC50 worked out at 0.0529 µg/mL in assay [2], 0.0341 µg/mL in assay [3], 0.0265 µg/mL in assay [4] and 0.0387 µg/mL in assay [5].

B3: 52H5D3B8-6#-VH2+VL2 (antibody, V domains shown)
VH: QVQLVQSGAEVKKPGASVKVSCKASGYTFTDYEMHWVRQAPGQGLEWIGAIHPGSGGTAYNQKFKGRVTMTADTSTSTVYMELSSLRSEDTAVYYCTRYYSYAYWGQGTLVTVSS
VL: DIVMTQTPLSLSVTPGQPASISCRSSQSLVHSNGNTYLQWYLQKPGQSPQLLIYKVSNRFSGVPDRFSGSGSGTDFTLKISRVEAEDVGVYFCFQSIHVPYTFGGGTKLEIK
notes: humanized
B3 yielded a Kd in assay [1] of 1.15 nM. For the same molecule, the koff in assay [1] worked out at 0.000749 s⁻¹. In addition, in assay [1], the kon turned out to be 651000 M⁻¹ s⁻¹. Besides, the EC50 in assay [2] is 0.0846 µg/mL; in assay [3], 0.043 µg/mL; in assay [4] it was 0.0434 µg/mL; in assay [5], 0.0481 µg/mL.

B4: 52H5D3B8-6#-VH1+VL2 (antibody, V domains shown)
VH: QVQLVQSGAEVKKPGASVKVSCKASGYTFTDYEMHWVRQAPGQGLEWMGAIHPGSGGTAYNQKFKGRVTMTRDTSTSTVYMELSSLRSEDTAVYYCARYYSYAYWGQGTLVTVSS
VL: DIVMTQTPLSLSVTPGQPASISCRSSQSLVHSNGNTYLQWYLQKPGQSPQLLIYKVSNRFSGVPDRFSGSGSGTDFTLKISRVEAEDVGVYFCFQSIHVPYTFGGGTKLEIK
notes: humanized
In assay [1], B4 gave an equilibrium dissociation constant (Kd) of 2 nM. Further, the koff in assay [1] was 0.00113 s⁻¹. In assay [1], this molecule came in with a kon of 564000 M⁻¹ s⁻¹. For the same molecule, the EC50 in assay [2] turned out to be 0.0615 µg/mL; in assay [3], 0.0388 µg/mL; in assay [4] it was 0.0326 µg/mL; in assay [5], 0.043 µg/mL.

B5: 52H5D3B8-6#-VH3+VL2 (antibody, V domains shown)
VH: QVQLVQSGAEVKKPGASVKVSCKALGYTFTDYEMHWVKQAPGQGLEWIGAIHPGSGGTAYNQKFKGRVTLTADTSTSTVYMELSSLRSEDTAVYYCTRYYSYAYWGQGTLVTVSS
VL: DIVMTQTPLSLSVTPGQPASISCRSSQSLVHSNGNTYLQWYLQKPGQSPQLLIYKVSNRFSGVPDRFSGSGSGTDFTLKISRVEAEDVGVYFCFQSIHVPYTFGGGTKLEIK
notes: humanized
Take B5: binding in assay [1] was characterised by a dissociation constant (Kd) of 0.883 nM. For the same molecule, the koff in assay [1] turned out to be 0.000587 s⁻¹. Moreover, the kon in assay [1] amounted to 664000 M⁻¹ s⁻¹. The EC50 came out at 0.0786 µg/mL in assay [2], 0.0429 µg/mL in assay [3], 0.0411 µg/mL in assay [4] and 0.0444 µg/mL in assay [5].

B6: 52H5D3B8-11# chimeric mAb (antibody, V domains shown)
VH: QVQLQQSGAELVRPGASVKLSCKALGYTFTDYEMHWVKQTPVHGLEWIGAIHPGSGGTAYNQKFKGKATLTADKFSSTGYMELSSLTSEDSAVYYCTRFYSFAYWGQGTLVTVSA
VL: DVVMTQTPLSLPVSLGDQASISCRSSQSLVHSNGNTYLQWYLQKPGQSPKLLIYKVSNRFSGVPDRFSGSGSGTDFILKISRVEAEDLGVYFCFQSTHVPYTFGGGTKLEIK
notes: CDR3 mutant of the 52H5D3B8 chimeric mAb (human IgG1)
Consider B6, for which the half-maximal effective concentration (EC50) in assay [7] was determined as 0.104 µg/mL. In assay [8], this molecule yielded a Kd of 10.9 nM, a koff of 0.00354 s⁻¹ and a kon of 326000 M⁻¹ s⁻¹.

B7: 52H5D3B8-13# chimeric mAb (antibody, V domains shown)
VH: QVQLQQSGAELVRPGASVKLSCKALGYTFTDYEMHWVKQTPVHGLEWIGAIHPGSGGTAYNQKFKGKATLTADKFSSTGYMELSSLTSEDSAVYYCTRYYSFAYWGQGTLVTVSA
VL: DVVMTQTPLSLPVSLGDQASISCRSSQSLVHSNGNTYLQWYLQKPGQSPKLLIYKVSNRFSGVPDRFSGSGSGTDFILKISRVEAEDLGVYFCSQSTHVPYTFGGGTKLEIK
notes: as for B6
Consider B7, for which the EC50 in assay [7] was determined as 1.55 µg/mL. In assay [8], this molecule returned a Kd of 28.9 nM, a koff of 0.00143 s⁻¹ and a kon of 49600 M⁻¹ s⁻¹.

B8: 52H5D3B8-14# chimeric mAb (antibody, V domains shown)
VH: QVQLQQSGAELVRPGASVKLSCKALGYTFTDYEMHWVKQTPVHGLEWIGAIHPGSGGTAYNQKFKGKATLTADKFSSTGYMELSSLTSEDSAVYYCTRYYSFAYWGQGTLVTVSA
VL: DVVMTQTPLSLPVSLGDQASISCRSSQSLVHSNGNTYLQWYLQKPGQSPKLLIYKVSNRFSGVPDRFSGSGSGTDFILKISRVEAEDLGVYFCFQSIHVPYTFGGGTKLEIK
notes: as for B6
On to B8, for which the EC50 in assay [7] is 0.0895 µg/mL. In assay [8], this molecule came in with a Kd of 1.53 nM, a koff of 0.000737 s⁻¹ and a kon of 481000 M⁻¹ s⁻¹.

B9: 52H5D3B8-12# chimeric mAb (antibody, V domains shown)
VH: QVQLQQSGAELVRPGASVKLSCKALGYTFTDYEMHWVKQTPVHGLEWIGAIHPGSGGTAYNQKFKGKATLTADKFSSTGYMELSSLTSEDSAVYYCTRYYSYAYWGQGTLVTVSA
VL: DVVMTQTPLSLPVSLGDQASISCRSSQSLVHSNGNTYLQWYLQKPGQSPKLLIYKVSNRFSGVPDRFSGSGSGTDFILKISRVEAEDLGVYFCFQSTHVPYTFGGGTKLEIK
notes: as for B6
The molecule B9 returned an EC50 in assay [7] of 0.235 µg/mL. In assay [8], this molecule yielded a Kd of 5.56 nM, a koff of 0.00133 s⁻¹ and a kon of 240000 M⁻¹ s⁻¹.

B10: 52H5D3B8-15# chimeric mAb (antibody, V domains shown)
VH: QVQLQQSGAELVRPGASVKLSCKALGYTFTDYEMHWVKQTPVHGLEWIGAIHPGSGGTAYNQKFKGKATLTADKFSSTGYMELSSLTSEDSAVYYCTRYYSFAYWGQGTLVTVSA
VL: DVVMTQTPLSLPVSLGDQASISCRSSQSLVHSNGNTYLQWYLQKPGQSPKLLIYKVSNRFSGVPDRFSGSGSGTDFILKISRVEAEDLGVYFCFQSTHVPYTFGGGTKLEIK
notes: as for B6
B10: it took 0.15 µg/mL to reach a half-maximal effect in assay [7] (EC50). In addition, in assay [8], the affinity, expressed as Kd, was 28.2 nM; the koff is 0.00755 s⁻¹; the kon amounted to 267000 M⁻¹ s⁻¹.

The record behind these values is patent US20240409663A1 (CONCEPT TO MEDICINE BIOTECH, published 2024).
